Reference: the supplement of paper PMC9732359
± gives the uncertainty stated by the source.

Test: protein stability index of a GFP-peptide fusion (yeast GPS) (PSI 1-4); higher = more stable; sorted into four equal gates, so the index is relative within each strain
How it was run: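 Mid-log yeast cultures in leucine-free medium, carrying a pooled plasmid library, were sorted into four equal gates by their GFP/Cherry fluorescence ratio. Each plasmid expressed Cherry along with GFP fused upstream of a tiled 17-residue yeast protein peptide. Plasmids recovered from each gate were PCR-amplified and Illumina-sequenced, with reads assigned to strains by barcodes. The protein stability index was obtained by summing each gate's read frequency weighted by its gate number.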

Sequence | protein stability index (doa10∆) | protein stability index (pdr5∆) | protein stability index (san1∆) | protein stability index (ubr1∆)
KDIAKRQFKEILTVKEE [RRP40] | 2.2 ± 0.045 | 2.4 ± 0.048 | 2.46 ± 0.057 | 2.52 ± 0.042
KDIIDPKLTSIFERMIE [RPN2] | 2.68 ± 0.14 | 2.99 ± 0.11 | 2.93 ± 0.078 | 2.66 ± 0.1
KDLEIRKLEISSRFKHR [GAL11] | 2.87 ± 0.099 | 2.76 ± 0.081 | 3.16 ± 0.13 | 2.81 ± 0.053
KDLVTENAYDNPLADAE [PRE4] | 3.11 ± 0.09 | 3.34 ± 0.12 | 3.32 ± 0.11 | 3.21 ± 0.063
KDNECSSFEENNDLESV [RRI2] | 3.13 ± 0.16 | 3.12 ± 0.16 | 3.1 ± 0.17 | 3.34 ± 0.17
KDQRATTPYMTKYERAR [RPO26] | 2.56 ± 0.057 | 3.01 ± 0.051 | 2.44 ± 0.11 | 3.04 ± 0.048
KDRFDIDEKSQFVETIV [RPN2] | 2.15 ± 0.05 | 2.48 ± 0.069 | 1.93 ± 0.066 | 2.17 ± 0.059
KDSVTECSKDMKEDGLS [SIR4] | 3.21 ± 0.12 | 3.45 ± 0.066 | 3.23 ± 0.07 | 3.32 ± 0.049
KDSYINANTIETAKMIE [FAS2] | 3.14 ± 0.045 | 3.07 ± 0.044 | 3.18 ± 0.032 | 3.16 ± 0.044
KDWTDTFVYILEKLIFD [SRB8] | 2.39 ± 0.067 | 2.72 ± 0.058 | 2.73 ± 0.074 | 1.93 ± 0.052
KDYEAKTKAMSLSIEEN [POP1] | 2.57 ± 0.13 | 2.55 ± 0.089 | 2.28 ± 0.082 | 2.95 ± 0.083
KDYHTLANNVESKLRDD [RPS18A] | 3.29 ± 0.14 | 3.48 ± 0.15 | 3.39 ± 0.11 | 3.33 ± 0.088
KEAALKTMIKTIEKDKM [SMC2] | 2.8 ± 0.17 | 1.83 ± 0.14 | 1.57 ± 0.13 | 2.03 ± 0.061
KEAFEEEIKQSARNYDK [SMC1] | 3.21 ± 0.078 | 3.09 ± 0.082 | 3.06 ± 0.051 | 3.31 ± 0.056
KEEFRLMISPKDEETTE [RRI2] | 1.75 ± 0.069 | 1.68 ± 0.055 | 1.14 ± 0.14 | 1.5 ± 0.039
KEEVCQGMEGTVDLALF [YMR129W/POM152] | 3.45 ± 0.21 | 3.44 ± 0.27 | 3.26 ± 0.2 | 
KEFDETIFNLPKNKLVP [FAS1] | 3.5 ± 0.17 | 3.39 ± 0.18 | 3.59 ± 0.085 | 3.07 ± 0.2
KEIRAFDKLLNIPRREL [SRB4] | 2.6 ± 0.08 | 2.46 ± 0.07 | 2.73 ± 0.08 | 1.95 ± 0.071
KELEPWDLQLQEKESQI [SMC4] | 3.16 ± 0.12 | 3.22 ± 0.13 | 3.21 ± 0.12 | 3.36 ± 0.12
KENEESLTPTQSDSAKV [PRP28] | 3.13 ± 0.088 | 3.35 ± 0.063 | 2.9 ± 0.095 | 3.11 ± 0.053
KEQTIQLPSKFTCSCNS [RPN14] | 2.15 ± 0.065 | 2.53 ± 0.057 | 1.96 ± 0.063 | 2.16 ± 0.038
KFGLLLQVSAQERKDFL [ECM29] | 1.6 ± 0.082 | 1.5 ± 0.056 | 1.59 ± 0.2 | 1.57 ± 0.047
KFLNFRPPNGIKNFKSL [SSN2] | 1.87 ± 0.04 | 1.83 ± 0.04 | 2.16 ± 0.061 | 1.79 ± 0.031
KFSERRKALPKEPKKLL [DSN1] | 2.33 ± 0.069 | 2.88 ± 0.081 | 2.52 ± 0.11 | 2.87 ± 0.053
KGIAKEHAKWGPAAAIE [RPB3] | 3.11 ± 0.12 | 3.32 ± 0.1 | 3.06 ± 0.13 | 2.9 ± 0.055

Sequence | protein stability index (doa10∆) | protein stability index (pdr5∆) | protein stability index (san1∆) | protein stability index (ubr1∆)
KGKDFEITAKEVYDFTH [FAS1] | 3.09 ± 0.059 | 3.23 ± 0.055 | 2.97 ± 0.052 | 3.05 ± 0.046
KGLETIDNGAESSENEA [RPC53] | 3.24 ± 0.13 | 3.44 ± 0.13 | 3.14 ± 0.1 | 3.12 ± 0.094
KGNVGFVFTNEPLTEIK [RPP0] | 3.56 ± 0.18 | 3.06 ± 0.1 | 2.06 ± 0.21 | 3.58 ± 0.2
KGRYAPETGDHVVGRIA [RRP4] | 3.03 ± 0.08 | 3.21 ± 0.08 | 2.6 ± 0.11 | 2.67 ± 0.11
KGVATTREKVLEDKLRA [RRP46] | 3.36 ± 0.15 | 3.16 ± 0.12 | 2.71 ± 0.23 | 3.04 ± 0.075
KGVGRRYSNLVCKKADV [RPS18A] | 3.46 ± 0.2 | 2.37 ± 0.11 | 1.74 ± 0.1 | 2.49 ± 0.074
KHDSLRYRLLSDVSDFE [RPN1] | 2.7 ± 0.09 | 3.04 ± 0.1 | 2.75 ± 0.089 | 2.66 ± 0.098
KHFIQGGSFGNREEFIN [RPL7A] | 1.61 ± 0.21 | 1.86 ± 0.14 | 1.21 ± 0.23 | 1.56 ± 0.04
KHSVTEYIFEAHEIIKR [CDC53] | 2.32 ± 0.067 | 1.87 ± 0.049 | 2.68 ± 0.075 | 2.58 ± 0.051
KIDIIELQKSLSLEEVE [FAS1] | 2.92 ± 0.14 | 2.62 ± 0.15 | 2.52 ± 0.077 | 2.79 ± 0.088
KIFWERLKEINGWEKYL [ISW2] |  |  |  | 1.46 ± 0.24
KILAGLHDTQIEGKLHM [RPN10] | 3.31 ± 0.18 | 3.46 ± 0.18 |  | 2.98 ± 0.22
KILRDNIQGITKPAIRR [HHF1] | 3.17 ± 0.083 | 3.33 ± 0.077 | 3.08 ± 0.055 | 3.21 ± 0.058
KILSPTMYMEVYTAIYN [CDC53] | 1.58 ± 0.058 | 1.62 ± 0.061 | 1.63 ± 0.08 | 1.74 ± 0.055
KILVLTGAGVSTSLGIP [SIR2] | 2.35 ± 0.042 | 2.34 ± 0.057 | 2.76 ± 0.054 | 2.69 ± 0.051
KINPFGFEQVKIALGSP [RRI2] | 2.65 ± 0.08 | 2.91 ± 0.053 | 2.77 ± 0.068 | 2.78 ± 0.07
KIPLPEVHDLIGFITSG [POP1] |  | 1.66 ± 0.24 | 1.88 ± 0.18 | 1.91 ± 0.14
KIQETELKIRSKTENVR [RPT6] | 2.35 ± 0.11 | 2.61 ± 0.088 | 2.23 ± 0.16 | 2.57 ± 0.073
KIRITLTSTKVKQLENV [RPS20] | 1.77 ± 0.076 | 2.11 ± 0.12 | 1.94 ± 0.11 | 2.25 ± 0.068
KIRPWRTFRLNECVCTP [RPO31] | 1.31 ± 0.065 | 1.99 ± 0.064 | 1.73 ± 0.18 | 1.24 ± 0.092
KISEDPVKALNECIAST [SNF12] | 2.37 ± 0.17 | 2.86 ± 0.12 | 2.62 ± 0.068 | 2.82 ± 0.097
KISGGNDKQGFPMKQGV [RPS6A] | 2.53 ± 0.071 | 2.83 ± 0.085 | 3.01 ± 0.059 | 2.85 ± 0.067
KISLRDICLKLNLDSEQ [RPN3] | 3.46 ± 0.12 | 3.34 ± 0.093 |  | 3.32 ± 0.11
KITIGIQRTTESLILKW [RGR1] | 2.33 ± 0.086 | 1.6 ± 0.067 | 1.49 ± 0.078 | 1.66 ± 0.04
KIYMLYSLQPSVDITGG [RPC34] | 1.94 ± 0.13 | 2.27 ± 0.15 |  | 2.27 ± 0.14
